The results in this text go back to publication PMC3283998 (The Journal of Cell Biology, 2012).

Where no end group is shown, it is not given here.

The target in one assay is T1, Bub1(1–150) (human, UniProt O43683 1-150).
T1 sequence (looked up): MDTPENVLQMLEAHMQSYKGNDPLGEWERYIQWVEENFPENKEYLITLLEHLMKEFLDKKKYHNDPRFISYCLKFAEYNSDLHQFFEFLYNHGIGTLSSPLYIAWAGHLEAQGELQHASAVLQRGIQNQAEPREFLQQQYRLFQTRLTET
Kind of assay: fluorescence polarisation.

A further assay addresses BubR1(1–204) (human, UniProt O60566 1-204). As to the kind of experiment: fluorescence polarisation.

Chain of BubR1(1–204) (O60566 1-204): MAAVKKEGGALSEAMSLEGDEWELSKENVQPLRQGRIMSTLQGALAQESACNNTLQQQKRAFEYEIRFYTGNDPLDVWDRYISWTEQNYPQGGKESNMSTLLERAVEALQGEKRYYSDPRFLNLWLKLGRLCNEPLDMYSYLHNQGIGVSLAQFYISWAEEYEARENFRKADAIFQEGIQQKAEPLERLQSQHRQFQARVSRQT

B1: Fluorescein (5-FAM)-labeled Knl1(174–190) peptide (peptide, UniProt Q8NG31-2 174-190, looked up)
peptide: STKIDTTSFLANLKLHT
modifications: also: fluorescein (5-FAM) label, position not given here
B1 showed a Kd in the assay with Bub1(1–150) of approximately 35 µM.

B2: 5-FAM–labeled synthetic peptide Knl1(210–226) (peptide, UniProt Q8NG31-2 210-226, looked up)
peptide: ENKIDFNDFIKRLKTGK
modifications: also: 5-FAM label, position not given here
As to B2, binding in the assay with BubR1(1–204) was put at a Kd of 0.45 µM.
